Reference: patent publication US12371675B2, “Process and microorganism for synthesis of adipic acid from carboxylic acids” (THE GOVERNING COUNCIL OF THE UNIVERSITY OF TORONTO, priority 2015, dated 2025)

B1: PS2358: OYE protein from Pseudomonas syringae pv. tomato str. DC3000 (protein)
chain: MSALFEPFKLKDVTLRNRIAIPPMCQYSAIDGVVNDWHHVHLASMARGGAGLLVVEATAVAPEGRITPGCTGIWNDEQAQAFVPIVKAIKDAGCVPGIQIAHAGRKASANRPWEGDDHIVASDSRGWDTIAPSAIAFGANLPKVPRAMTLDDIARVRQNFVDAARRARDAGFEWIELHFAHGYLGQSFFSEHSNQRTDEYGGSFDNRSRFLLETLAAVREVWPENLPLTARFGVLEYDGRDEQTLTESIELARRFKAGGLDLLSVSVGFSTPDANIPWGPAFMGPIAERVRREAAIPVTSAWGFGEPKLAEEAVKSGQLDLVSIGRAHLADPHWAYFAAKELGVEKSAWTLPAPYAHWLERYR
B2: PSPH1060: OYE protein from Pseudomonas syringae pv. phaseolicola 1448A (protein)
chain: MSVEALFTPFRLGSLELSSRVVMAPMTRSFSPGHVPNSKVIEYYRRRAAAGVGLIVTEGTTVNHKASNGYPNVPQFFGDAPLAGWRKVVEAVHAEGGKIVPQLWHVGAVRRPGTEPDGSVPAYGPMEKVKDGQVLVHGMSKQDIDDVVAAFAQAAVDAKAIGMDGVEIHGAHGYLIDQFFWEGSNQRSDEYGGSLAKRSRFAIELIKAVRVAVGADYPIIFRFSQWKQQDYTARLVQTPEALGEFLQPLADAGVDIFHCSTRRFWEPEFEGSDLNLAGWTRKLTGKPTITVGSVGLDGEFLQFMVNTDKVAQPASLENLLKRLGNDEFDLVAVGRALLVDPDWALKVREGREQDILPFSREALTTLV
B3: RHA03305: OYE protein from Rhodococcus sp. RHA1 (protein)
chain: MQHTSTTASTLFSPLKLGSTELANRVALAPMTRVSGDEDGSANESIASYYEVFAKGGFGLLITEGIYPDTKYSQGYLNQPGLATAQHADSWKPVVERVHTAGARIFAQLMHAGAQSQGNRYVTETIAPSTTPPLGEQLGFYGGTGPYATPRALSLRDIDDVCAGFAQAAQHAVAAGFDGVEIHGANGYLLDQFLTDYMNQRDDEYGGSLANRLKIYREVIAAVRQVVGSKVTVGVRISQSKVSDYNHRWAGGESDAAEIFQGLAETGVDYIHTTEFDATAPAFADSGTTLAAFATKYSGLPVIANGQLGDPAAADALIENGSAQVISLGKPALANRDWPQRALDAKPIQSDVDPSVFSPMATVKSWELSA
B4: PSPH4058: OYE protein from Pseudomonas syringae phaseolicola 1448A (protein)
chain: MTTIFDPITIGDLQLPNRIIMAPLTRCRADEGRVPNALMSEYYVQRASAGLILTEATSVTPMGVGYPDTPGIWSNDQVRGWSNITKAVHTAGGRIVLQLWHVGRISHPAYLNGETPVAPSAIAAEGHVSLMRPITPLPTPRALELAEIGDIVEAYRVGAENAKAAGFDGVEVHGANGYLLEQFLLTGSNQRTDEYGGSVENRARLLLEVTDAVIEVWGAGRVGVHLSPRFDMHDMSDANRTETFSYVAKELGKRGIAFICARERDAEDSLGPQLKKDFGGVYIANEKFTKDTANTWLAEGKADAIAFGVPYIANPDLPERLASDAPLNEAHPETFYGKGPVGYIDYPRL
B5: BH1481: OYE protein from Bacillus halodurans C-125 (protein)
chain: MEHKLFSSYVVKGVTLKNRIVMSPMCMYSSDQKDGKIRPFHISHYESRAAGQVGLIIVEATAVTPQGRISPYDLGIWSDDHISGLTETVERIHAHGAKAAIQLAHAGRKAELDGPIIAPSAISYDKMKTPDAMTEEQISETIEAFKLGALRAKKAGFDIIEIHGAHGYLINEFLSPLTNKRTDAYGGSLENRYRLLREIISEIQTVWDGPLFVRISAAEYAEGGNELSDFITLAKWMKKQGIDLIDCSSGAVVPAPIPVYPGYQVPLAEAIRHEANIATGAVGLITSGIQAEEILQNERADLIFVARELLRNPYWPREAALELGTTISGPSQYDRAWL
B6: PP1244: OYE protein from Pseudomonas putida KT2440 (protein)
chain: MSALFEPYTLKDVTLRNRIAIPPMCQYMAEDGMINDWHHVHLAGLARGGAGLLVVEATAVAPEGRITPGCAGIWSDAHAQAFVPVVQAIKAAGSVPGIQIAHAGRKASANRPWEGDDHIAADDARGWETIAPSAIAFGAHLPKVPREMTLDDIARVKQDFVDAARRARDAGFEWIELHFAHGYLGQSFFSEHSNKRTDAYGGSFDNRSRFLLETLAAVREVWPENLPLTARFGVLEYDGRDEQTLEESIELARRFKAGGLDLLSVSVGFTIPDTNIPWGPAFMGPIAERVRREAKLPVTSAWGFGTPQLAEAALQANQLDLVSVGRAHLADPHWAYFAAKELGVEKASWTLPAPYAHWLERYR
B7: PS1143: OYE protein from Pseudomonas syringae pv. tomato str. DC3000 (protein)
chain: MSAAALFTPFRLGGLELSSRVVMAPMTRSFSPGHVPNSKVIEYYRRRAAAGVGLIITEGTTVNHPASNGYPNVPQFFGDAPLAGWKKVVDAVHAEGGKIAPQLWHVGAVRRLGTEPDGSIPAYGPMEKVKDGQVLVHGMSKQDIDEVVAAFAQAAADAKAIGMDGVEIHGAHGYLVDQFFWEGSNQRSDEYGGSLANRSRFAIELIKAVRAAVGPDYPIIFRFSQWKQQDYSARLVQTPEALGEFVQPLSDAGVDIFHCSTRRFWEPEFEGSELNLAGWTRKLTGKPTITVGSVGLDGEFLQFMVNTEKVAQPASLENLLERLGKDEFDLVAVGRALLVDPDWAVKVREGREQDILPFSREALTTLV
B8: PSPH1370: OYE protein from Pseudomonas syringae pv. phaseolicola 1448A (protein)
chain: MSLLLEPYTLRQLTLRNRIAVSPMCQYSSVDGLANDWHLVHLGSRAVGGAGLVITEAMAVTPDGRITPEDLGLWNDEQIEPLQRITRFINAQGAVAGIQLAHAGRKASTWRPWLGKHGSISLNEGGWTPVGPSAIAFDPQHTAPVQLSETQIQELIKAFVDSARRALTAGFKVVEIHAAHGYLLHQFLSPLSNQRTDQYGGSFENRIRLTLQVTEAVRAVWPEELPLFVRVSATDWVEDGWNADETVELARRLKALGTDLIDVSSGGTSANAEIPVGPGYQTRFAERVRKESEIATGTVGMITDPAQAEHILRTGQADIILLARELLRDPYWPLRADEDLGGRLATWPAQYQRATHRDQPIHESDLRD
B9: PS4251: OYE protein from Pseudomonas syringae pv. tomato str. DC3000 (protein)
chain: MTTIFDPITLGDLQLPNRIILAPLTRCRADEGRVPNALMSEYYVQRASAGLILTEATSVTPMGVGYPDTPGIWSNDQVRGWSNITQAVHNAGGRIVLQLWHVGRISHPSYLNGETPVAPSAIAAQGHVSLMRPITPLPTPRALELAEIGDIVEAYRVGAENAKAAGFDGVEVHGANGYLLEQFLLTGSNQRTDQYGGSLENRARLLLEVTDAVIDVWGAGRVGVHLSPRFDMHNMSDENRAETFSYVAKELGKRGIAFICARERDAEDSLGPQLKKDFGGVYIANEKFTKDSANAWLAEGKADAFAFGVPYIANPDLPERLASDAPLNEAHPETFYGKGPVGYIDYPRL
B10: XCC0307: OYE protein from Xanthomonas campestris pv. campestris str. ATCC 33913 (protein)
chain: MSQLFTPINFGPLALANRIVIAPMCQYSAQDGRATDWHRIHLGTLSQSGAALLILEAAAVQPQGRISYADLGLYDDATEQALGEVLASVRRWSPMPIGIQLAHAGRKASTDLPWKGGEAIAPDHANGWQTVSASALPFRDGQPLPQALDAAGIDAVVEAFVTAAKRAERLELQLIELHAAHGYLMHQFLSPLSNQRSDAYGGSLDNRMRLTLRIFDAVRAAVSDQMAIGVRISATDWVDGGWDLPQSIALSKALDARGAHYIHVSSGGLDPRQQIPVQASYQIPFAEAIRAQVDTPVIGVGLITEPQQAEAILRDGQADAIALARGILYDPRWPWHAAAALGASVTPAPQYQRCEPREARGVFAS
B11: SAV1511: OYE protein from Streptomyces avermitilis MA-4680 (protein)
chain: MSALFEPYSLRDLTIPNRVWMAPMCQYSAAPQGPAAGAPHDWHFAHYAARATGGTGLIVVEATAVSPEGRISPYDLGIWNDTQVEAFRRITRFLAAQGTVPAIQLAHGGRKASTDRPWKGGAPLAADEHGWQPLGPSPVAFDERHPVPTELSVAEIRQIVGQFADAARRALAAGFEIAEIHGAHGYLINEFLSPHSNRRTDEYGGSYENRVRFALEVVDAVREVWPAGKPLFFRVSATDWLDEGGWTADDTVRFAAELQAHGVDLLDVSTGGNASGVRIPTGPGYQVPFAARVKAGTSLPVAAVGLITDAEQAEKILANGEADAILLGRELLRNPSFARLAARELGGDVHVPAQYHRSV
B12: PP1466: OYE protein from Pseudomonas putida KT2440 (protein)
chain: MSLLLEPYTLRQLTLPNRIAVSPMCQYSAIDGLANDWHLVHLGCRAVGGAGLVISEAVAVTADGRITAEDLGLWNDDQIVPLQRITRFITAQGAVPGIQLAHAGRKASTYRPWLGKQGSVKLEDGGWQPVGPSKIAFDPQHTPPRELSKDEIQDVIDAFVASTERALKAGFKVVEIHAAHGYLLHQFLSPLSNQRRDEYGSCFENRIRLTLQVVEAVRKVWPAELPLFVRVSATDWVEDGWNPDETVELARRLRVLGVDLIDVSSGGTSVNAEIPTGPGYQTRFAERVRKEAEIATGTVGMITEPAQAEHILRTGQADVIFLARELLRDPYWPLHADDDLGGNKATWPAQYQRATSRANPIHESDLRD

experiment: OYE hydrogenation activity screen, NADPH oxidation at 340 nm; format: biochemical; conditions: 1 mM substrate, 0.25 mM NADPH, 2.5 μg protein; cut-off 0.05 U/mg protein; ND = not detected
Description: 25 putative OYE genes (Table 1) were cloned based on the Pfam domain of the FMN oxidoreductase family PF00724. Purified OYEs were screened for hydrogenation activity against acrolein, 2-cyclohexn-1-one, cis,cis-muconic acid, trans,trans-muconic acid, and 2-hexendioic acid. Substrate specificity was measured spectrophotometrically in 96-well plates by following incubation for 20 min at room temperature in the anaerobic chamber. Buffers and reagents were also degassed and sparged with Ar. Reaction mixtures contained potassium phosphate (50 mM and pH 7.0), NaCl (10 mM), NADPH (0.25 mM), various substrates (1 mM) and protein (2.5 μg) in a final volume of 200 μL. Enzyme reactions were monitored by following the decrease in absorbance at 340 nm (ε340 nm=6,200/M·cm) as a measure of the conversion of the cofactor NADPH to NADP+.

| Molecule | Activity [U/mg protein] 2-cyclohexen-1-one | Activity [U/mg protein] acrolein |
| --- | --- | --- |
| B1 | 0.13 U/mg protein |  |
| B2 | 0.14 U/mg protein |  |
| B3 |  | 0.08 U/mg protein |
| B4 | 0.22 U/mg protein |  |
| B5 | 0.13 U/mg protein |  |
| B6 | 0.25 U/mg protein | 0.06 U/mg protein |
| B7 | 0.18 U/mg protein |  |
| B8 | 0.18 U/mg protein |  |
| B9 | 0.09 U/mg protein |  |
| B10 | 0.15 U/mg protein |  |
| B11 | 0.23 U/mg protein | 0.05 U/mg protein |
| B12 | 0.14 U/mg protein |  |
